Results taken from patent publication US20140154255A1 (AbbVie / Abbott, published 2014).
Changes are numbered by the printed parent chain. In names and notes the source's numbering stands.

Columns and labels:
[1] = target: T1, human VEGF-A residues 27-191 of Accession #AAV38412 (human, UniProt P15692 27-191); experiment: BIAcore SPR; kd of this row is at the detection limit
T1 construct: range 27-191
Description: (§1) The binding kinetics and affinity of the antibodies for VEGF (human VEGF-A residues 27-191 of Accession #AAV38412) was determined by using a BIAcore T200 surface plasmon resonance system (BIAcore, GE Healthcare, Piscataway, N.J.). Coupling running buffer was HBS-EP+ running buffer (10 mM HEPES, 150 mM sodium chloride, 3 mM EDTA 0.05% P-20, pH 7.4); assay running buffer was HBS-EP+ with 300 mM sodium chloride and 0.1 mg/mL BSA (Sigma A7906). Polyclonal goat anti-human Fc (Thermo Scientific prod#31125) was first immobilized to the biosensor surface in 10 mM sodium acetate, pH 4.5 using standard BIAcore amine coupling reagents (N-ethyl-N′-dimethylamino-propylcarbodiimide, EDC; N-hydroxysuccinimide, NHS; and ethanolamine HCl, pH 8.5). For binding kinetics assay a series of cycles were performed, each cycle consisted of 1) mAb capture, 2) Ag or buffer injection, 3) dissociation phase and 4) regeneration. Briefly, anti-VEGF antibodies were captured on parallel surfaces at a low flow rate of 10 μL/min. Capture levels were kept low to minimize avidity due to the dimeric nature of VEGF. No capture of the antibody was made on the reference surface to serve for primary referencing and as a negative control. […]

[2] = target: T1, human VEGF-A residues 27-191 of …; experiment: BIAcore SPR, KD WT/KD mutant
[3] = target: T1, human VEGF-A residues 27-191 of …; experiment: BIAcore SPR
[4] = target: T1, human VEGF-A residues 27-191 of …; experiment: BIAcore SPR; * detection limit
Description: as §1

[5] = target: T2, unlabeled human VEGF (ELISA coat) (human, UniProt P15692-4 27-191, limits assumed); experiment: ELISA on coated human VEGF, 1 hr incubation, against bevacizumab (WT)
T2 sequence (P15692 other isoform, or with tags, fused parts or gaps limits assumed): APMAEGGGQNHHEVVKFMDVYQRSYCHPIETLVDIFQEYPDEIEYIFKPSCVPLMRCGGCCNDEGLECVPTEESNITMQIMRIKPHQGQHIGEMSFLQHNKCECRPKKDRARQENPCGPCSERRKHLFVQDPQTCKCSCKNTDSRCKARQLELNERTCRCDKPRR
Description: (§2) Corresponding variants in DVD-Ig format were analyzed for binding kinetics by BIAcore only.
(§3) To detect identified variants binding to antigen, ELISA plates (Nunc-Immuno MaxiSorp plates, Nalge Nunc, Rochester, N.Y.) were coated overnight at 4° C. with unlabeled human VEGF at 1 μg/mL in 0.2 M sodium carbonate-bicarbonate buffer (pH 9.4, Pierce, Rockford, Ill.). The plates were then blocked with SuperBlock Blocking Buffer (Pierce, Rockford, Ill.) for 30 min and washed with Washing Buffer (PBS containing 0.1% Tween 20). All the washing steps were performed for three times. […] The plates were washed and 100 μL of goat anti-human kappa HRP-conjugated antibody (Southern Biotech, Birmingham, Ala.) diluted at 1:1000 in ELISA buffer was added to each well. After 30 minutes of incubation, plates were washed and bound antibodies were detected by addition of TMB 1 Component HRP Microwell substrate (BioFx #TMBW-1000-01). The reaction was terminated by addition of 100 μL/well of 650 nM Stop Reagent for TMB Microwell substrate and the absorbance was measured at 650 nm using a VERSAmax microplate reader (Molecular Devices, Sunnyvale, Calif.). Data were fitted using nonlinear regression with the software […]

[6] = target: T2, unlabeled human VEGF (ELISA coat); experiment: ELISA on coated human VEGF, overnight assay, against bevacizumab (WT)
Description: as §2, §3

[7] = target: T3, VEGF (R&D systems, Minneapolis, Minn.) (UniProt P15692-4 27-191, limits assumed); experiment: SPR (BIAcore 2000/3000), antibody captured by anti-human Fc, VEGF as analyte, 1:1 Langmuir fit; variant corresponding to SEQ ID NO:82, the best of the variants
T3 sequence (P15692 other isoform, or with tags, fused parts or gaps limits assumed): as above
Description: (§4) RL was kept low to minimize avidity due to the dimeric nature of VEGF. No capture of the antibody was made on the reference surface to serve as a negative control. Subsequently, VEGF was injected to all flow cells at a flow rate of 50 μL/min for two minutes to monitor association followed by a 25-minute flow of HBS-P running buffer (10 mM HEPES, 150 mM sodium chloride, 0.005% P-20, pH 7.4) to monitor the dissociation phase. At each cycle, VEGF, in 6 different concentrations of VEGF ranging between 0 nM and 512 nM and at four-fold increments, was injected over the surface. […] Binding data were fit to the 1:1 Langmuir model to extract binding constants from the BIAevaluate software. Double referencing was applied in each analysis to eliminate background responses from the reference surface and buffer only control. All the binding kinetics data were analyzed at least three separate determinations.

[8] = target: T3, VEGF (R&D systems, Minneapolis, Minn.); experiment: BIAcore SPR
Description: as §4

[9] = target: T3, VEGF (R&D systems, Minneapolis, Minn.); experiment: BIAcore SPR, WT/mutant
Description: as §4

[10] = target: T3, VEGF (R&D systems, Minneapolis, Minn.); experiment: BIAcore SPR, mutant/WT
Description: as §4

[11] = target: T3, VEGF (R&D systems, Minneapolis, Minn.); experiment: BIAcore SPR, improvement over WT
Description: as §4

[12] = target: Alexa647-conjugated rHuVEGF (Invitrogen Cat #PHG0143) (human, UniProt P15692-4 27-191, limits assumed, Alexa647-conjugated); experiment: flow cytometry, surface-bound antibody on 293c18 cells, 3 nM Alexa647-rHuVEGF; parameters: reference not given here
Chain of Alexa647-conjugated rHuVEGF (Invitrogen Cat #PHG0143) (P15692 other isoform, or with tags, fused parts or gaps limits assumed): as above
Description: Data were gathered by way of flow cytometry using a DakoCytomation CyAn ADP flow cytometer and was analyzed using Treestar's FloJo analysis program.

[13] = target: T2, unlabeled human VEGF (ELISA coat); experiment: ELISA 1 hr, EC50 WT/EC50 mutant
[14] = target: T2, unlabeled human VEGF (ELISA coat); experiment: ELISA overnight, EC50 WT/EC50 mutant

T1 sequence (P15692 other isoform, or with tags, fused parts or gaps limits assumed): as above

B1: bevacizumab variant H97Y (IgG format) (antibody, name in Kabat numbering, V domains shown)
VH: EVQLVESGGGLVQPGGSLRLSCAASGYTFTNYGMNWVRQAPGKGLEWVGWINTYTGEPTYAADFKRRFTFSLDTSKSTAYLQMNSLRAEDTAVYYCAKYPYYYGSSHWYFDVWGQGTLVTVSS
VL: DIQMTQSPSSLSASVGDRVTITCSASQDISNYLNWYQQKPGKAPKVLIYFTSSLHSGVPSRFSGSGSGTDFTLTISSLQPEDFATYYCQQYSTVPWTFGQGTKVEIKR
notes: IgG format; also called H97Y substitution
In the case of B1, the Kd [1] is reported as ≤ 0.243 nM, the affinity improvement [2] is reported as 1.8 fold and the kon [3] is reported as 41200 M⁻¹ s⁻¹. The koff [4] was ≤ 1e-05 s⁻¹, the “fold over WT (EC50 wild type/EC50 mutant), 1-hour assay” value [5] was 2.6 fold and the “fold over WT (EC50 wild type/EC50 mutant), overnight assay” value [6] was 9.3 fold.

B2: bevacizumab variant corresponding to SEQ ID NO:82 (antibody, V domains shown)
VH: B1 VH with N31F, Y101D, Y103D, S105G
VL: B1 VL
Binder B2 has a Kd [7] of 0.08 nM, a Kd [8] of 0.0827 nM and a koff [8] of 0.000172 s⁻¹. The kon [8] was 2.08e+06 M⁻¹ s⁻¹, the Δkoff [9] was 2 fold and the Δkon [10] was 11.6 fold. For the same binder, the ΔKD [11] was 23.8 fold.

B3: VH K64Q (antibody, V domains shown)
VH: B1 VH with K65Q, Y101H
VL: DIQMTQSPSSLSASVGDRVTITCSASQDISNYLNWYQQKPGKAPKVLIYFTSSLHSGVPSRFSGSGSGTDFTLTISSLQPEDFATYYCQQYSTVPWTFGQGTKVEIK
notes: copies: 2 + 2
With B3 the MFI [12] was 230.

B4: VH H97E.Y98F (antibody, V domains shown)
VH: B1 VH with Y101E, Y102F
VL: B3 VL
notes: copies: 2 + 2
B4 gave an MFI [12] of 310.

B5: VH K64S (antibody, V domains shown)
VH: B1 VH with K65S, Y101H
VL: B3 VL
notes: copies: 2 + 2
For B5, the MFI [12] was 168.

B6: VH Y53F.K64Q (antibody, V domains shown)
VH: B1 VH with Y54F, K65Q, Y101H
VL: B3 VL
notes: copies: 2 + 2
For B6, the MFI [12] was 217.

B7: H97 F (anti-VEGF IgG) (antibody, V domains shown)
VH: B1 VH with Y101F
VL: B3 VL
notes: copies: 2 + 2
With B7 the Kd [1] was ≤ 0.17 nM, the affinity improvement [2] was 2.5 fold and the “ELISA 1hr binding” value [13] was 2 fold. For the same binder, the kon [3] was 59000 M⁻¹ s⁻¹, the koff [4] was ≤ 1e-05 s⁻¹ and the ELISA o/n binding [14] was 2.3 fold.
